Reference: US20210246166A1 (Bayer, published 2021)
Numbered stars: 1 amine (or outer) side, 2 acyl side, 3 side chain; on linkers, the order of the positions; unused ones are H or OH. Bridge positions count the residues as written; N and C are the ends. Square brackets hold non-standard residues; d marks the D form. Ends that are not written are not given here. X17 = 2‑((1S,2S)-1-(Amino)-2-methylbutyl)‑1,3‑oxazole‑4‑carboxylic acid, CC[C@H](C)[C@H](N[*:1])c1nc(C(=O)[*:2])co1; Pro(4-spirocPr) = O=C(O)[C@@H]1CC2(CC2)CN1; Oic = O=C(O)[C@@H]1C[C@@H]2CCCC[C@@H]2N1; tBuAla = CC(C)(C)C[C@H](N)C(=O)O; Pen = CC(C)(S)[C@H](N)C(=O)O; NMeC = CN[C@@H](CS)C(=O)O; NMeA = CN[C@@H](C)C(=O)O; Nle = CCCC[C@H](N)C(=O)O

Legend:
[1] = biological target: T1, recombinant human MASP1 active protease (amino acids 297-699, C-terminal His Tag) (human, UniProt P48740 297-699); assay: cell-based or functional assay
T1 sequence: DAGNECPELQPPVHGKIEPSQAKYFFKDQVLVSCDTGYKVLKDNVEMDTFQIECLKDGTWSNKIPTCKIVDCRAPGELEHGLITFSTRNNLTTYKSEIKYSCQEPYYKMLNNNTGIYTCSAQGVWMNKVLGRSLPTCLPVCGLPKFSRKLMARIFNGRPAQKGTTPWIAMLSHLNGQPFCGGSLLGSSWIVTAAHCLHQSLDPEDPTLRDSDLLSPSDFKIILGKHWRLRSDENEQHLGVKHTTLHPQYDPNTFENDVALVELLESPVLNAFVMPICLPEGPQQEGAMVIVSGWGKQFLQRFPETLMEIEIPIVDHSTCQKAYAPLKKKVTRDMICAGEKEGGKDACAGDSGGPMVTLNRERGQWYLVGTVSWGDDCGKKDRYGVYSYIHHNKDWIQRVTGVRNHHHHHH

[2] = biological target: recombinant human MASP2 active protease (amino acids 297-686, C-terminal His Tag) (human, UniProt O00187 297-686); assay: cell-based or functional assay
recombinant human MASP2 active protease (amino acids 297-686, C-terminal His Tag), sequence (O00187 other isoform, or with tags, fused parts or gaps limits assumed): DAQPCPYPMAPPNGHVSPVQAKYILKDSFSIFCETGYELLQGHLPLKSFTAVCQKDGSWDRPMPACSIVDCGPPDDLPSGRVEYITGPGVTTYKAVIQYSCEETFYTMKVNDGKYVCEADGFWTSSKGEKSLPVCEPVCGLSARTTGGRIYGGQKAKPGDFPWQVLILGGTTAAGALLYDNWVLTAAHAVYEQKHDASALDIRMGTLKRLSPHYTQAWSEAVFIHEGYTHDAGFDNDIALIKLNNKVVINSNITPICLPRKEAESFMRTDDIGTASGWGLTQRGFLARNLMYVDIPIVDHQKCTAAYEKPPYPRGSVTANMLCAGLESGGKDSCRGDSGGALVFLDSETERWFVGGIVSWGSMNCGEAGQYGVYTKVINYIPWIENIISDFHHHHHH

| Binder | human MASP1 IC50 [1] | human MASP2 IC50 [2] |
| --- | --- | --- |
| AICSRS[tBuAla]PPI[NMeC]IPD-NH2 (disulfide 3-11; also: HCl salt) [AIC+SRS-((tBu)A)-PPI-((N-Me)C)+IPD-NH2 (HCl salt)] | 1.53 nM | 140 nM |
| AICSRS[tBuAla]PPI[NMeC][X17]D-NH2 (disulfide 3-11; N-terminus assumed; SMILES CC[C@H](C)[C@H](NC(=O)[C@H](C)N)C(=O)N[C@H]1CSSC[C@@H](C(=O)N[C@H](c2nc(C(=O)N[C@@H](CC(=O)O)C(N)=O)co2)[C@@H](C)CC)N(C)C(=O)[C@H]([C@@H](C)CC)NC(=O)[C@@H]2CCCN2C(=O)[C@@H]2CCCN2C(=O)[C@H](CC(C)(C)C)NC(=O)[C@H](CO)NC(=O)[C@H](CCCNC(=N)N)NC(=O)[C@H](CO)NC1=O) | 1.4 nM | 720 nM |
| AICSRS[tBuAla]PPI[NMeC]I-NH2 (disulfide 3-11; N-terminus assumed; SMILES CC[C@H](C)[C@H](NC(=O)[C@@H]1CSSC[C@H](NC(=O)[C@@H](NC(=O)[C@H](C)N)[C@@H](C)CC)C(=O)N[C@@H](CO)C(=O)N[C@@H](CCCNC(=N)N)C(=O)N[C@@H](CO)C(=O)N[C@@H](CC(C)(C)C)C(=O)N2CCC[C@H]2C(=O)N2CCC[C@H]2C(=O)N[C@@H]([C@@H](C)CC)C(=O)N1C)C(N)=O) [AIC+SRS-((tBu)A)-PPI-((N-Me)C)+I-NH2] | 1.5 nM | 100 nM |
| AICSRS[tBuAla]PPI[Pen]IP[dE]-NH2 (disulfide 3-11; N-terminus assumed; SMILES CC[C@H](C)[C@H](NC(=O)[C@H](C)N)C(=O)N[C@H]1CSSC(C)(C)[C@@H](C(=O)N[C@H](C(=O)N2CCC[C@H]2C(=O)N[C@H](CCC(=O)O)C(N)=O)[C@@H](C)CC)NC(=O)[C@H]([C@@H](C)CC)NC(=O)[C@@H]2CCCN2C(=O)[C@@H]2CCCN2C(=O)[C@H](CC(C)(C)C)NC(=O)[C@H](CO)NC(=O)[C@H](CCCNC(=N)N)NC(=O)[C@H](CO)NC1=O) [AIC+SRS-((tBu)A)-PPI-(Pen)+IPe-NH2] | 1.4 nM | 62 nM |
| AICSRS[tBuAla]PPI[Pen]IP[dN]-NH2 (disulfide 3-11; N-terminus assumed; SMILES CC[C@H](C)[C@H](NC(=O)[C@H](C)N)C(=O)N[C@H]1CSSC(C)(C)[C@@H](C(=O)N[C@H](C(=O)N2CCC[C@H]2C(=O)N[C@H](CC(N)=O)C(N)=O)[C@@H](C)CC)NC(=O)[C@H]([C@@H](C)CC)NC(=O)[C@@H]2CCCN2C(=O)[C@@H]2CCCN2C(=O)[C@H](CC(C)(C)C)NC(=O)[C@H](CO)NC(=O)[C@H](CCCNC(=N)N)NC(=O)[C@H](CO)NC1=O) [AIC+SRS-((tBu)A)-PPI-(Pen)+IPn-NH2] | 1.4 nM | 53 nM |
| AICSRSLP[Pro(4-spirocPr)]I[Pen]IPD-NH2 (disulfide 3-11; N-terminus assumed; SMILES CC[C@H](C)[C@H](NC(=O)[C@H](C)N)C(=O)N[C@H]1CSSC(C)(C)[C@@H](C(=O)N[C@H](C(=O)N2CCC[C@H]2C(=O)N[C@@H](CC(=O)O)C(N)=O)[C@@H](C)CC)NC(=O)[C@H]([C@@H](C)CC)NC(=O)[C@@H]2CC3(CC3)CN2C(=O)[C@@H]2CCCN2C(=O)[C@H](CC(C)C)NC(=O)[C@H](CO)NC(=O)[C@H](CCCNC(=N)N)NC(=O)[C@H](CO)NC1=O) [AIC+SRSLP-((6S)-5-Azaspiro[2.4]heptane-6-carboxylic acid)-I-(Pen)+IPD-NH2] | 1.33 nM | 18 nM |
| RICSRS[tBuAla]PPI[NMeC]IPD-NH2 (disulfide 3-11; N-terminus assumed; SMILES CC[C@H](C)[C@H](NC(=O)[C@@H](N)CCCNC(=N)N)C(=O)N[C@H]1CSSC[C@@H](C(=O)N[C@H](C(=O)N2CCC[C@H]2C(=O)N[C@@H](CC(=O)O)C(N)=O)[C@@H](C)CC)N(C)C(=O)[C@H]([C@@H](C)CC)NC(=O)[C@@H]2CCCN2C(=O)[C@@H]2CCCN2C(=O)[C@H](CC(C)(C)C)NC(=O)[C@H](CO)NC(=O)[C@H](CCCNC(=N)N)NC(=O)[C@H](CO)NC1=O) [RIC+SRS-((tBu)A)-PPI-((N-Me)C)+IPD-NH2] | 1.36 nM | 100 nM |
| [NMeA]ICSRS[tBuAla]PPI[Pen]IPD-NH2 (disulfide 3-11; N-terminus assumed; SMILES CC[C@H](C)[C@H](NC(=O)[C@H](C)NC)C(=O)N[C@H]1CSSC(C)(C)[C@@H](C(=O)N[C@H](C(=O)N2CCC[C@H]2C(=O)N[C@@H](CC(=O)O)C(N)=O)[C@@H](C)CC)NC(=O)[C@H]([C@@H](C)CC)NC(=O)[C@@H]2CCCN2C(=O)[C@@H]2CCCN2C(=O)[C@H](CC(C)(C)C)NC(=O)[C@H](CO)NC(=O)[C@H](CCCNC(=N)N)NC(=O)[C@H](CO)NC1=O) [((N-Me)A)-IC+SRS-((tBu)A)-PPI-(Pen)+IPD-NH2] | 1.43 nM | 98 nM |
| AICSRS[tBuAla]P[Pro(4-spirocPr)]I[Pen]IPD-OH (disulfide 3-11; N-terminus assumed; SMILES CC[C@H](C)[C@H](NC(=O)[C@H](C)N)C(=O)N[C@H]1CSSC(C)(C)[C@@H](C(=O)N[C@H](C(=O)N2CCC[C@H]2C(=O)N[C@@H](CC(=O)O)C(=O)O)[C@@H](C)CC)NC(=O)[C@H]([C@@H](C)CC)NC(=O)[C@@H]2CC3(CC3)CN2C(=O)[C@@H]2CCCN2C(=O)[C@H](CC(C)(C)C)NC(=O)[C@H](CO)NC(=O)[C@H](CCCNC(=N)N)NC(=O)[C@H](CO)NC1=O) [AIC+SRS-((tBu)A)-P-((6S)-5-Azaspiro[2.4]heptane-6-carboxylic acid)-I-(Pen)+IPD-OH] | 1.57 nM | 17.7 nM |
| [NMeA]ICSRS[tBuAla]P[Oic]I[Pen]IP-NH2 (disulfide 3-11; N-terminus assumed; SMILES CC[C@H](C)[C@H](NC(=O)[C@H](C)NC)C(=O)N[C@H]1CSSC(C)(C)[C@@H](C(=O)N[C@H](C(=O)N2CCC[C@H]2C(N)=O)[C@@H](C)CC)NC(=O)[C@H]([C@@H](C)CC)NC(=O)[C@@H]2C[C@@H]3CCCC[C@@H]3N2C(=O)[C@@H]2CCCN2C(=O)[C@H](CC(C)(C)C)NC(=O)[C@H](CO)NC(=O)[C@H](CCCNC(=N)N)NC(=O)[C@H](CO)NC1=O) [((N-Me)A)-IC+SRS-((tBu)A)-P-(Oic)-I-(Pen)+IP-NH2] | 1.4 nM | 40 nM |
| [Nle]ICSRS[tBuAla]PPI[NMeC]I-NH2 (disulfide 3-11; N-terminus assumed; SMILES CCCC[C@H](N)C(=O)N[C@H](C(=O)N[C@H]1CSSC[C@@H](C(=O)N[C@H](C(N)=O)[C@@H](C)CC)N(C)C(=O)[C@H]([C@@H](C)CC)NC(=O)[C@@H]2CCCN2C(=O)[C@@H]2CCCN2C(=O)[C@H](CC(C)(C)C)NC(=O)[C@H](CO)NC(=O)[C@H](CCCNC(=N)N)NC(=O)[C@H](CO)NC1=O)[C@@H](C)CC) [(Nle)-IC+SRS-((tBu)A)-PPI-((N-Me)C)+I-NH2] | 1.5 nM | 56 nM |
